Source: the nanobody polyreactivity screen of Harvey et al. (2022)

Assay: yeast display, Sf9 membrane polyspecificity reagent, FACS + sequencing; frameworks hold sequencing errors
How it was run: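 Polyreactivity labels are assigned by the sorting gate from which each nanobody was recovered. The gates were low and high (top ~1%), set on anti-HA fluorescence for expression and streptavidin fluorescence for reagent binding. Before sorting, galactose-induced (36–48 hours) yeast display cells were stained for 1 hour at 4 °C with 10% biotinylated, detergent-solubilized Sf9 membrane reagent.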

| Sequence | polyreactivity (PSR sort gate) |
| --- | --- |
| QVQLVESGGGLVQAGGSLRLSCAASRRNFGRYAMGWYRQAPGKETELVARISSGGSTHYADSVKGRFTISRDNAMNSVFLQMNSLKPEDTAVYYCAAGWGYWRSYGSWGQGTEVTVSS | high polyreactivity |
| QVQLVESGGGLVQAGGSLRLSCAASRSIFLYYAMGWYRQAPGKERELVAAISYSGSGTYADSVKGRFTISRDNAKNTVYLQMNSLKPEDTAVSYCNVDYGSNSYDYWGQGTQVTVSS | low polyreactivity |
| QVQLVESGGGLVQAGGSLRLSCAASRSIFLYYAMGWYRQAPGKERELVAAISYSGSGTYADSVKGRFTISRDNAKNTVYLQMNSLKPEDTAVYYCNVDYGSYSYDYWGQGTQVTVSS | low polyreactivity |
| QVQLVESGGGLVQAGGSLRLSCAASRSIFSAYAMGWYRQAPGKERELVAAISTSGYTNYADSVKGRFTISRDNAKNTVYLQMKSLTPEDTAVYYCAADRVYGDGTAGYGYEFDYWGQVTQVTVSS | low polyreactivity |
| QVQLVESGGGLVQAGGSLRLSCAASRSTFFRYAMGWYRQAPGKERELVAAITWSGGSTYYADSVKGRFTISRDNAKNTVYLQMNSLKPEDTAVYYCAAPWRLFSLYDYWGQGTQVTVSS | low polyreactivity |
| QVQLVESGGGLVQAGGSLRLSCAASRSTFGFYAMGWYRQAPGTERELVAAISRRGGTTYYADSVKGRFTISRDIAKNTFYLQMNSLKPEDTAVYYCAARIHYYAGYDYWGQGTQVTVSS | high polyreactivity |
| QVQLVESGGGLVQAGGSLRLSCAASRSTFYAYALGCYRQAPGKERELVAAIDSGGSTYYADSVKGRFTISRDNAKNTVYLQMNSLKPEDTAVYYCAVRHRYTRAYWGRDYWGQGTQVTVSS | low polyreactivity |
| QVQLVESGGGLVQAGGSLRLSCAASRSTFYIYDMGWYRQAPGKESELVARISGSGVSTYYADSVKGRFTISRDNAKNTVYLQMNSLKPEDTAVYYSAADGISHWLYRYDYWGQGTQVTVSS | low polyreactivity |
| QVQLVESGGGLVQAGGSLRLSCAASRYIFDPNAMGWYRQAPGKERELVAAISGSGTSTYYADSVKGRFTISRDNAKNTVYLQMNSLKPEDTAVYYCAAAHDAGPVRYYYWGQGTQVSVSS | low polyreactivity |
| QVQLVESGGGLVQAGGSLRLSCAASVFIFGYNAMGWYRQAPGKERELVAAISSSGGSTYYADSVKGRFTISRDNAKNTVYLQMNSLKPEDTAVYYCAARPVALRKYDYWGQGTQVTVSS | low polyreactivity |
| QVQLVESGGGLVQAGGSLRLSCAASVFILRYYAMGWYRQAPGKERELVAAISYTAGSTYYADSVKGRFTISRDNAKNTVYLQMNSLKPKDTAVYYCAASYTPWRYVPRDYWGQGTQVTVSS | high polyreactivity |
| QVQLVESGGGLVQAGGSLRLSCAASVFIYVKYAMGWYRQAPGKERELVAAITWSTGSTYYADSVKGRFTISRDNAKNTVYLQMNSMKPEDTAVYYCNVDSAWGRRYYSSYPFYYWGQGTQVTVSS | low polyreactivity |
| QVQLVESGGGLVQAGGSLRLSCAASVIIFNRYAMGRYRQAPGKERELVAAISGTGASTYYADSVKGRFTISRDNAKNTVYLQMNSLKPEDTAVYYCNARKRYKSGYWGQGTQVTVSS | high polyreactivity |
| QVQLVESGGGLVQAGGSLRLSCAASVIIFRLYGMGWYRQAPGKEREFVATITWRGGRTNYADSVKGRFTISRDNAKNTVYLQMNSLKPQDTAVYYCAKVVRYARSNEYDSWGQGTQVTVSS | low polyreactivity |
| QVQLVESGGGLVQAGGSLRLSCAASVITFGYYAMGWYRQAPGKERELVAAISRRGGNTYYADSVKGRFTISRDIAKNTVYLQMNSLKPEDTAVSYCATRALYWRYGYDYWGQGTQVTVSS | high polyreactivity |
| QVQLVESGGGLVQAGGSLRLSCAASVITFYFNAMGWYRQAPGKERELVAVITSGGSTNYADSVKGRFTISRDNAKNTVNLQMNSLKPEDTAVYYCATDKSYSSWSAQYDYWGQGTQVTVSS | low polyreactivity |
| QVQLVESGGGLVQAGGSLRLSCAASVLTFSYYALGGSRPAHGTERELVAAITSSGGRTTYADSVKGRFTISRDNAKNTVYLQMNSLKPEDTAVYYCNVVRCTLKYGYWGQGTQVTVSS | high polyreactivity |
| QVQLVESGGGLVQAGGSLRLSCAASVRIFTRYAMGWYRPAPGKERELVAGISYRGGGTYYADSVKGRFTISRDNAKNTVYLQMNSLKPEDTAVYYCATRRYPYSLLYKYWGQGTQVTVSS | high polyreactivity |
| QVQLVESGGGLVQAGGSLRLSCAASVRIFWYNAMGWYRQAPGKERELVATISSSGSTNYADSVKGRFTISRDNAKNTVYLQMNSLKPEDTAVYYGAPGKTGFRYGGGDSTQEYWGQGTQVTVSS | low polyreactivity |
| QVQLVESGGGLVQAGGSLRLSCAASVRIIDINAMGWSRQAPRKEREFVAGITSVGSTNYADSEKGRFTISRDNAKNTDYLDMNSLKPEDTAVYYCAADTSVHSEVDYWGQGTQVTVSS | low polyreactivity |
| QVQLVESGGGLVQAGGSLRLSCAASVRTFNLHAMGCYTQAPGKERELFAAITRSGDSTYYADSVKGSFTISRDKAKKTVYLQMKSLKPEDTAVYYCAKDNVTTPVVKVTFIPLDYWGQGTQVTVSS | low polyreactivity |
| QVQLVESGGGLVQAGGSLRLSCAASVRTFYIYAMGWYRQAPGKERELDAAITWSGGTTYYADSVKGRFTISRDIAINTVYLQMNSLKPEDTAVYYCAADRYGFYLESYYCGQGTQVTVSS | low polyreactivity |

| Sequence | polyreactivity (PSR sort gate) |
| --- | --- |
| QVQLVESGGGLVQAGGSLRLSCAASVRTFYRNAMGWYIQAPGKERELVAAITSGGSTYYADSVKGRFTISRDNAKNTVYLQMNSLKPEDTAVYYCAALRHALRYDYWGQGTQVTVSS | low polyreactivity |
| QVQLVESGGGLVQAGGSLRLSCAASVSIFIYYAMGWYRQAQGKERELVAAISYSDGDTYYADSVKGRFTISRDNAKNTVYLQMNSLKPEDTAVYYCAAEVPQYYDVGWEDYCGQGTQVTVSS | high polyreactivity |
| QVQLVESGGGLVQAGGSLRLSCAASVSIFQKNARGWYRQAPGKERELVAVITRGGTSTYYADSVKGRFTISRDNAKNTVYLQMNSLKPEDTAVYDCAADSGFDTAPYDFWGQGTQVTVSS | low polyreactivity |
| QVQLVESGGGLVQAGGSLRLSCAASVSTFDGYAMGWYRQAPGKERELVAAISSNGGSTYYADSVKGRFTISRDNAKNTVYLQMNSLKPEDTAVYYCNTYRSTVYSWTHLLYDYWGQGTQVTVSS | low polyreactivity |
| QVQLVESGGGLVQAGGSLRLSCAASVSTFGDYTMGWYRQAPGKERELVAAITLTGGSTYYADSVKGRFTISRDNAKNTVYLQMNSLKPEDTAVYYCNTDVIRWVGGTWHRYYYWGQGTQVTVSS | low polyreactivity |
| QVQLVESGGGLVQAGGSLRLSCAASVSTFQGYSMGWYRQAPGKERELVAAITTDGDSTYYADSVKGRFTISRDNAKNTVYLQMNSLKPEDTAVYYCAADQDGRWEGSSDPGDSWGQGTQVTVSS | low polyreactivity |
| QVQLVESGGGLVQAGGSLRLSCAASVSTFVRYAMGWYRPAPGKDRELVAAIDGGGTTKYADSVKGRFTISRDNAKNTVYLQMNSLKTEDTAVYYCAADQVWGYDSWGQGTQVTVSS | low polyreactivity |
| QVQLVESGGGLVQAGGSLRLSCAASVSTFYSYAMGAYRKAPGKERELVATISTRGGSTYYADSVKGRFTISRDNAKNTVYLHMNSLKPEDTAVYYCNVRLEYRYYRGDYWGHGTQVTVSS | high polyreactivity |
| QVQLVESGGGLVQAGGSLRLSCAASVYTFKSYAMGWYRQAPGKERELVASISNDGSTNYADSVKGRFTISRDNAKNTVYLQMNSLKPEDTAVYYCNADFYDAPSQWARTGFDYWGQGTQVTVSS | low polyreactivity |
| QVQLVESGGGLVQAGGSLRLSCAATGFTFRTYAMGWYRQAPGKERELVAAITVSGGTYYADSVKGRFTITRDNAKNSFYFQMISLKPEDTAVYYCTAKRFRTGFDYWGQGTQVTVSS | low polyreactivity |
| QVQLVESGGGLVQAGGSLRLSCAATGGIFGYYSMGWYRQSPGKESELVAAINYSGGSTYYADSVKGRFTISRDNAKNTVYLQMNSLKPEDTAVYYCNAVVRDYTFRYYYWGQGTQVTVSS | low polyreactivity |
| QVQLVESGGGLVQAGGSLRLSCAATGGLFNVYVMGWYRQAPGKERELVAAITWRGGSTYYADSVKGRFTISRDNAKNTVYLQMNSLKPEDTAVYYCNADAPFQSSSDGYQVEYWGQGTQVTVSS | low polyreactivity |
| QVQLVESGGGLVQAGGSLRLSCAATGIIFGHYAMGWYRQAPGKERELVAAITSGGRTYYADSVKGRFTISRDNAKNTVYLQMNSLKPEDTAVYYCNVDQGYQGYLRIFDYWGQGTQVTVSS | low polyreactivity |
| QVQLVESGGGLVQAGGSLRLSCAATGIIFTGKSMGWYRQAPGTERELVASITSGDTTNYADSVKGRFTISRDNAKNTVYLQMNSLKPEDTAVYSCAKELQVRQGGDYWGQGTQVTVSS | low polyreactivity |
| QVQLVESGGGLVQAGGSLRLSCAATGIILGPYAMGWYRPAPGKERELVAAISWRGGSTYNADSVKGRFTISRDNAKNTVYLQMNSLKPEDTAVYYCATASRTSRTGWAGYYCGQGTQVTVSS | high polyreactivity |
| QVQLVESGGGLVQAGGSLRLSCAATGITFEGYAMGWYRQAPGKERELVAAIRSSGTSTYYADSVKGRFTISRDNAKNTVYLQMNSLKPEDTAVYYCNRARSSSRYDYCGQGTQVTVSS | low polyreactivity |
| QVQLVESGGGLVQAGGSLRLSCAATGITFTRYAMGWYRQAPGKEREFVAAIRRSGGNTYYADSVKGRFTISRDNAKNTVYILMNSLKPEDTAVYYCAASFRKTSPTRLVDYWGQGTQVTVSS | low polyreactivity |
| QVQLVESGGGLVQAGGSLRLSCAATGITFYINAMAWYIQAPGKESEFVAAIDFNTGDTYYADSVKGRFTISRDTSKNTVYLEMNRLKPEDTAVYYCAADVGYWYGYYYIYDFWAQGTQVTVSS | high polyreactivity |
| QVQLVESGGGLVQAGGSLRLSCAATGLFDVYAMGGYRQAPRKERELVAAISSDGSTYYADSVKGRFTISRDNAKNTVYLQMNSLKPEDTAVYYCNADTSGSPYLQGYVGYGYWGQGTQVTVSS | low polyreactivity |
| QVQLVESGGGLVQAGGSLRLSCAATGLIFGWYAMGWYRQAPGKERELVAAISYSGGRTYYADSVKGRFTISRDNAKNTVYLQMNSLKPEDSAVYYCAAIVLQLRGRGYEYWGQGTQVTVSS | high polyreactivity |
| QVQLVESGGGLVQAGGSLRLSCAATGRIFGGYPMGWYRQAPGKERELVAVISGRGGSTYYADSVKGRFTISRDNAKNTVYLQMNSLIPEDTAVYYCAAVGYYAWTFGYDYWGQGTQVTVSS | high polyreactivity |
